Experiment: yeast display, Sf9 membrane polyspecificity reagent, FACS + sequencing; frameworks hold sequencing errors
In short: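 Genes from sorted yeast were amplified by colony PCR, read by MiSeq 2 × 250 sequencing and filtered on CDR length. These cells carried a synthetic nanobody library in Saccharomyces cerevisiae BJ5465 and were sorted by FACS into low and high (top ~1%) gates on anti-HA and streptavidin fluorescence. Polyreactivity is labelled according to the gate of origin.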

Sequence	polyreactivity (PSR sort gate)
QVQLVESGGGLVQAGGSLRLSCAASGSIIVYYAMGWYRQAPGKERELVAAIRVRGGSTYYADSVKGRFTISRDTAKNTVYLQMNSLKPEDTAVYYCATAGRYGRYRTNAYRSKYDYWGQGTQVTVSS	high polyreactivity
QVQLVESGGGLVQAGGSLRLSCAASGSIIWLYAMGWYRQAPGKERELVAAISSGGSTYYADSVKGRFTISRDNAKNTVYLQMNSLKPEDTAVYYCNVDYWQPWQYDYWGQGTQVTVSS	high polyreactivity
QVQLVESGGGLVQAGGSLRLSCAASGSIIYHYAWGWYRQAPGQERELVDAITRCGGSTYYADSVKGRFTISRDNAKNTVYLQMHSLKPEDTAVYYCAREAGRYAYKYYWWQRTDYDYGGQGTQVTVSS	low polyreactivity
QVQLVESGGGLVQAGGSLRLSCAASGSIIYLYTMGWYRQAPGKERELVAAISSSGSSTYYADSVKGRFTISRDNAKNTVYLQMNSLKPEYTSVYYCAARYSYDSYYWGKGTQVTVSS	high polyreactivity
QVQLVESGGGLVQAGGSLRLSCAASGSILAYYGMGWYRQAPGKEREFVAAISNRGGSTYYADSVKGRFTISRDNAKNTVYLQLNSLKPEDTAVYYCARELYRRVWHHWAYWAAYDYWGQGTQVTVSS	low polyreactivity
QVQLVESGGGLVQAGGSLRLSCAASGSILDGYVMGWYRQAPGKDRELVAAISTNSDRTYYADSVKGRFTISRDNAKNTVDLQMNSLKPEDTAVYYCNARKLRRAGFPYDYWGQGTQVTVSS	high polyreactivity
QVQLVESGGGLVQAGGSLRLSCAASGSILDSNAMGWYRQAPGKERELVAAITSGGSTYYADSVKGRFTISRDNAKNTVYLLMNSLKPEDTAVYYCAAAYLGYGAVQPSYEGGYWGQGTQVTVSS	low polyreactivity
QVQLVESGGGLVQAGGSLRLSCAASGSILDYKVMGWYRQPPGKERELVAAIRGGGSTYYADSVKGRFTISRDNAKNTVYLQMNSLKPEVTAVYYCAKDSQTARDFDYWGQGTQVTVSS	low polyreactivity
QVQLVESGGGLVQAGGSLRLSCAASGSILESNVMGWYRQAPGKERELVASISSSGDSTYADSVKGRFTISRDNAKNTVYLQMNRLKPEDTAVYYCASDRLYWTYALYYWGQGTQVNVSS	low polyreactivity
QVQLVESGGGLVQAGGSLRLSCAASGSILEYYAMGWYRQAPGKERELVAGISSAGNTYYADSVKGRFTISRDNAKNTVYLQMNSLKPEDSAVYYCAAVPWSGEYDYWGQATQVTVSS	low polyreactivity
QVQLVESGGGLVQAGGSLRLSCAASGSILFVYAMGWYRQAPGKERELVAGINSSGTSTYADSVKGRFTISRDNAKNTVYLQMNSLKPEDTAVYYCAARWFYYRWAYDYWGQGTQVTVSS	low polyreactivity
QVQLVESGGGLVQAGGSLRLSCAASGSILFYNTMGWYRQAPGKERELVASITSGGSTKYADSVKGRFTISRDNAKNTVYLQMNSLKPEDTAVYYCNADRRFYSIYRWHHYYWGQGTQVTVSS	low polyreactivity
QVQLVESGGGLVQAGGSLRLSCAASGSILGDYAMGWYRQAPGSEREFVAAIDGSDGSTYYADSVKGRFTISRDNAKNTVYLQMNSLKPEDTAVYYCAATDYDTYRSSWYDYWGQGTQVTVSS	low polyreactivity
QVQLVESGGGLVQAGGSLRLSCAASGSILGGNAKGWYRQAPGKERELVAAITFSGGGTYYADSVKGRFTISRDNAKNTVYLQMNSLKPEDTAVYYCAADKDGYTYEFDYWGQGTQVTVSS	low polyreactivity
QVQLVESGGGLVQAGGSLRLSCAASGSILGLNAMGWYRQAPGKERELVASISRRGGSTRYADSVKGRFTISRDNAKNTVYLQMNSLKPEDTAVYYCNAYHWDGDGVFYEYDYWGQGTQVTVSS	high polyreactivity
QVQLVESGGGLVQAGGSLRLSCAASGSILGPYAMGWYRQAPGKERELVAAISWGGGSTYYADSVKGRFTISRDNAKNTVYLQMNSLKPEDTAVYYCAADFGYYDYDYWGQGTQVTVSS	low polyreactivity
QVQLVESGGGLVQAGGSLRLSCAASGSILGTYAMGWYRPAPGKESELVAAISSSGRTSYADTVKGRFTNSRDNAKNTVYLQMKSLKPEDTAVYYCNASNYIVLINDPDAAPWVYDYWGPGTQVTVSS	low polyreactivity
QVQLVESGGGLVQAGGSLRLSCAASGSILGYYAMGWYRQAPGKERELVAGIDYSAGSTYYADSVKGRFTISRDNAKNTVYLQMNSLKPEDTAVYYCAADVDSYWGTYDYWGQGTQVTVSS	low polyreactivity
QVQLVESGGGLVQAGGSLRLSCAASGSILGYYAMGWYRQAPGTEREFVAAITRSGSRTYYADSVKGRFTISRDNAKNTVNLHMNSLKPEDTAVYYCAKKGLFQGWPTLVDYWGEGTQVTVSS	high polyreactivity
QVQLVESGGGLVQAGGSLRLSCAASGSILGYYAMRWYRQAPGKERELVAAITASGGSTYYADSVKGRFTISRDNAKNTVYLQMNSLKPEDTAAYYCAAQYYATYGYWGQGTQVTVSS	low polyreactivity
QVQLVESGGGLVQAGGSLRLSCAASGSILHLYAMGWYRQAPGKERELVARINSGGTTNYADSVKGRFTISRDNAKNTVYLQMNSLKPEDTAVYYCAARFTPFITSDDGHYDYWGQGTQVTVSS	low polyreactivity
QVQLVESGGGLVQAGGSLRLSCAASGSILIPNAMGWYRQAPGKERELVASISKSGGSTYYADSVKGRFTISRDNAKNTVYLPKNSLKPEDTAVYYCAAAFVSVRKRYGYWGQGTQVTVSS	high polyreactivity

Sequence	polyreactivity (PSR sort gate)
QVQLVESGGGLVQAGGSLRLSCAASGSILIYNAMGWYRQAPGKERELVAGISRRGASTYYADSVKGRFTISRDNAKNTVYLQMNSLKPEDTAVYYCAALGKYIVAWSGDYWGHGTQVTVSS	low polyreactivity
QVQLVESGGGLVQAGGSLRLSCAASGSILLRYAMGWYRQAPGKEWELVAAIRTIGASTYYADSVKGRFTISRYNAMITVYLQMNSLKPDDTAVYYCNAESASYWYRPGYDYWGQGNQVTVSS	low polyreactivity
QVQLVESGGGLVQAGGSLRLSCAASGSILLTNTMGWYRQAPGKERELVADINSGASTNYADSVKGRFTISRDNAKNTVYLQMNSLKPEDTAVYYCAADTKGGTYEYDYWGQGTKVTVSS	low polyreactivity
QVQLVESGGGLVQAGGSLRLSCAASGSILLYYTMGWYRQAPGKERELVASITSGGRTYYADSVKGRFTISRDNAKNTVYLQMNSLKPEDTAVYFCAADVWKLYDYWGQGTQVTVSS	low polyreactivity
QVQLVESGGGLVQAGGSLRLSCAASGSILNIYTMGWYRQAPGTERELVAAITSGDITYYADSVKGLFTISRDNAKNTVYLQMISLKPEDTAVYYCAADASSQINEWLSYGEGYNYWGQGTQVTVSS	low polyreactivity
QVQLVESGGGLVQAGGSLRLSCAASGSILNNYAMGWYRQAPGKERELVAAISSSGGTNYADSVKGRFTISRDNAKNTVYLQMNSLKPEDTAVYYCNADVLDGGYDYWVQGTQVTVSS	low polyreactivity
QVQLVESGGGLVQAGGSLRLSCAASGSILNSYAMGWYRQAPGKERELVASITVIGGSTYYADSVKGRFSISRDNAKNTDYLQMNSLKPEDTAVYYCNKEWIIADAYYGVHDYYYWGQGTQVTVSS	low polyreactivity
QVQLVESGGGLVQAGGSLRLSCAASGSILPDYAMGWYRQAPGKERELVASITNSGDSTYYADSVKGRFTISRDNAKNPVYLQMNSLKPEDTAVYYCNADSVRYDYSANDYEYWGQGSQVTVSS	high polyreactivity
QVQLVESGGGLVQAGGSLRLSCAASGSILPVNAMGWYRQAPGKERELVAAITSSGSTTYADSVKGRFTISRDNAKNTVYLQMNSLKEEDTAVYYCAADVYWSYYLYYIYKGGYWGQGTQVTVSS	low polyreactivity
QVQLVESGGGLVQAGGSLRLSCAASGSILRDHAMGWYRQATGKERELVAAITSGDSTHYADSVKGRFTISRDNAKNTVYLQMNSLKPEDTAVYYCATKWSLISIHGYYYWGQGTQVTVSS	low polyreactivity
QVQLVESGGGLVQAGGSLRLSCAASGSILRPNVMGWYRQAPGKERELVARISSRGVNTYYADSVKGRFTLSRDNAKNTVYLQMHSLKPEDTAVFYCNARRAQYYWNRSAKYDYWGQGTQVTVSS	high polyreactivity
QVQLVESGGGLVQAGGSLRLSCAASGSILRQYAMGWYRQAPGKERELVATITGDGSTNYADSVKGRFTISRDNAKNTVYLQMNSLKPEDTAVYYCAADQTYTYEYWGQGTQVTVSS	low polyreactivity
QVQLVESGGGLVQAGGSLRLSCAASGSILRQYAMGWYRQAPGKERELVATITGDGSTNYADSVKGRFTISRDNAKNTVYLQMNSLKPEDTAVYYCNAELPVHWSWYDYWGQGTQVTVSS	low polyreactivity
QVQLVESGGGLVQAGGSLRLSCAASGSILRRYAMGWYRQAPGKEREFVAAISYSGSRTYYADSVKGRFTISRDNAKNTVYLQMNSLKPEDTAVYYCAADSYGSRYEYWGQGTQVTVSS	high polyreactivity
QVQLVESGGGLVQAGGSLRLSCAASGSILRSNAMGWYRQAPGKERELVATITNSGGSTYADSVKGCFTISRDNAKNTVYLQMNSLKPEDTAVYYCAKAGAGESIAKYDYWGQGTQVTVSS	low polyreactivity
QVQLVESGGGLVQAGGSLRLSCAASGSILSGYAMGWYRQAPGKETELVAAITSGGDTNYADSVKGRFTISRDNAKNTVYLQMNSLKPEDTAVYYCNRRGDFRIAYYDPMDYWGQGTQVTVSS	low polyreactivity
QVQLVESGGGLVQAGGSLRLSCAASGSILSLYTMGWYRQAPGKERELVAAITSRGTRTYYADSVKGRFTISRDYAKNTVYLQMNRLKPEDTAVYYCAAGSYYWGQGTQVTVSS	high polyreactivity
QVQLVESGGGLVQAGGSLRLSCAASGSILSSYAMGWYRQAPGKERELVAAISYTGDSTYYADSVKGRFTISRDNAKNTVYLQMNSLKPEDTAVYYCAAELLPPYYYRWLEYWGQGTQVTVSS	low polyreactivity
QVQLVESGGGLVQAGGSLRLSCAASGSILSTYAMGWYRQAPGKERELVASISSNAGSTYYADSVKGRFTISRDNAKNTVYLQMNSLKPEDTAVYYCATESYVEGDYWGQGTQVTVSS	low polyreactivity
QVQLVESGGGLVQAGGSLRLSCAASGSILSYYVMGWYRPAPGKERELVAAITSDGSTNYADSVKGRFTISRDNAKNTVYLQMNSLKPEDTAVYYCAAVIAWYYGVQDVYYLGLYDYWGQGTQVTVSS	low polyreactivity
QVQLVESGGGLVQAGGSLRLSCAASGSILTHYAMGWYRQAPGKERELVAGIPWSGTSTYYADSVKGRFTISRDNAKNTVYLQMNSLKPEDTAVYYCNARHYGWGFAWKYDYWGQGTQVTVSS	low polyreactivity

— the nanobody polyreactivity screen of Harvey et al. (2022)
